Measured values from US20260234232A1 (QUAERITE BIOPHARM RESEARCH BEIJING, published 2026).
Numbering of substitutions follows the chain as printed. Values belong to the binder of their own block, whether it stands above or below them.

Key:
human VEGFA165 [1] = target: T1, human VEGFA165 (human, UniProt P15692-4 27-191); test: ELISA, coated human VEGFA165, anti-His detection
T1 construct: Bought protein from two suppliers, treated as one molecule; the supplier is named under assay; also called antigen VEGFA
T1 sequence (P15692 other isoform, or with tags, fused parts or gaps limits assumed): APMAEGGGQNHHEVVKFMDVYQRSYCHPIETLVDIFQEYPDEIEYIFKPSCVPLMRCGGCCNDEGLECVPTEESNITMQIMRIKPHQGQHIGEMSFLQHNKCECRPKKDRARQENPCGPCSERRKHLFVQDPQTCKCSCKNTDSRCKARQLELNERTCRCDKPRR
Protocol: Antigen human VEGFA165 (label-free, purchased from Sino Biological, Cat. No.: HPLC-10008-HNAH, hereinafter referred to as VEGFA) was diluted with ELISA coating buffer to a final concentration of 0.3 μg/mL and added to a microplate at 100 μL/well for coating at 4° C. overnight. […] The solution used for antibody dilution was PBS containing 0.1% Tween-20 (pH 7.4), i.e., PBST. After being incubated at 37° C. for 1 h, the microplate was washed 3 times with PBST, and a dilution of His-Tag murine monoclonal antibody (purchased from Proteintech, Cat. No.: 66005-1-Ig) was added. The plate was further incubated at 37° C. for 1 h and washed again. Subsequently, a dilution of HRP-labeled goat anti-mouse IgG antibody (HRP-conjugated Affinipure Goat Anti-Mouse IgG (H+L), purchased from Proteintech, Cat. No.: SA00001-1) was added, and the plate was incubated at room temperature for 45 min. After the plate was washed, 100 μL of TMB (purchased from Tiangen Biotech, Cat. No.: PA107-01) was added to each well for color development at 37° C. for 15 min, followed by the addition of 50 μL of stopping solution. The absorbance at 450 nm (OD450) was measured using a microplate reader.

human VEGFA165 [2] = target: T1, human VEGFA165; test: competitive ELISA, coated VEGFA, competitor VEGFR2-ECD-Fc 1 nM

B1: 2V15-20S (VHH)
chain: QLQLVESGGGSVQPGGSLRLSCEVSGRTFASYTMGWFRQAPGKEREFVVAISKGGYKYDSVSLEARFTISKDNTKNTVYLQMNSLKPEDTAVYYCAGTRAYGSSRLRLAETYEYWGQGTQVTVSSSSSSSSSSSSSSSSSSSSSSQLQLVESGGGSVQPGGSLRLSCEVSGRTFASYTMGWFRQAPGKEREFVVAISKGGYKYDSVSLEARFTISKDNTKNTVYLQMNSLKPEDTAVYYCAGTRAYGSSRLRLAETYEYWGQGTQVTVSS
notes: Tandem bivalent nanobody
- EC50 (human VEGFA165 [1]): 0.43 nM
- IC50 (human VEGFA165 [2]): 4.38 nM
- Maximum inhibition rate (%) (human VEGFA165 [2]): 89.8%

B4: 2V1-6A (VHH)
chain: QLQLVESGGGSVQPGGSLRLSCEVSGRTFSSYTMGWFRQAPGKEREFVVAISKGGYKYDSVSLEARFTISKDNTKNTVYLQMNSLKPEDTAVYYCAATRAYGSSRLRLADTYEYWGQGTQVTVSSAAAAAAQLQLVESGGGSVQPGGSLRLSCEVSGRTFSSYTMGWFRQAPGKEREFVVAISKGGYKYDSVSLEARFTISKDNTKNTVYLQMNSLKPEDTAVYYCAATRAYGSSRLRLADTYEYWGQGTQVTVSS
notes: Tandem bivalent nanobody
- EC50 (human VEGFA165 [1]): 0.33 nM

B7: 2V1-3A (VHH)
chain: QLQLVESGGGSVQPGGSLRLSCEVSGRTFSSYTMGWFRQAPGKEREFVVAISKGGYKYDSVSLEARFTISKDNTKNTVYLQMNSLKPEDTAVYYCAATRAYGSSRLRLADTYEYWGQGTQVTVSSAAAQLQLVESGGGSVQPGGSLRLSCEVSGRTFSSYTMGWFRQAPGKEREFVVAISKGGYKYDSVSLEARFTISKDNTKNTVYLQMNSLKPEDTAVYYCAATRAYGSSRLRLADTYEYWGQGTQVTVSS
notes: Tandem bivalent nanobody
- EC50 (human VEGFA165 [1]): 0.25 nM

B8: 2V1-3GS (VHH)
chain: B7 chain with A126G, A127G, A128S
notes: Tandem bivalent nanobody
- IC50 (human VEGFA165 [2]): 3 nM
- Maximum inhibition rate (%) (human VEGFA165 [2]): 91%

B13: 2V1-EAAAK-Turn (VHH)
chain: QLQLVESGGGSVQPGGSLRLSCEVSGRTFSSYTMGWFRQAPGKEREFVVAISKGGYKYDSVSLEARFTISKDNTKNTVYLQMNSLKPEDTAVYYCAATRAYGSSRLRLADTYEYWGQGTQVTVSSPDSEAAAKEAAAKEAAAKEAAAKEAAAKPDGSSQLQLVESGGGSVQPGGSLRLSCEVSGRTFSSYTMGWFRQAPGKEREFVVAISKGGYKYDSVSLEARFTISKDNTKNTVYLQMNSLKPEDTAVYYCAATRAYGSSRLRLADTYEYWGQGTQVTVSS
notes: Tandem bivalent nanobody
- EC50 (human VEGFA165 [1]): 0.31 nM
- IC50 (human VEGFA165 [2]): 1.56 nM
- Maximum inhibition rate (%) (human VEGFA165 [2]): 96.8%

B14: 2V15-EAAAK-Turn (VHH)
chain: B13 chain with S30A, A97G, D110E, S188A, A255G, D268E
notes: Tandem bivalent nanobody
- EC50 (human VEGFA165 [1]): 0.33 nM
- IC50 (human VEGFA165 [2]): 1.76 nM
- Maximum inhibition rate (%) (human VEGFA165 [2]): 96.7%

Results, then the binder that gave them:

- EC50 (human VEGFA165 [1]): 0.19 nM
B2: 2V1-(AP)5 (VHH)
chain: QLQLVESGGGSVQPGGSLRLSCEVSGRTFSSYTMGWFRQAPGKEREFVVAISKGGYKYDSVSLEARFTISKDNTKNTVYLQMNSLKPEDTAVYYCAATRAYGSSRLRLADTYEYWGQGTQVTVSSPDSAPAPAPAPAPDGSSQLQLVESGGGSVQPGGSLRLSCEVSGRTFSSYTMGWFRQAPGKEREFVVAISKGGYKYDSVSLEARFTISKDNTKNTVYLQMNSLKPEDTAVYYCAATRAYGSSRLRLADTYEYWGQGTQVTVSS
notes: Tandem bivalent nanobody

- EC50 (human VEGFA165 [1]): 0.18 nM
B3: 2V1-(AP)10 (VHH)
chain: QLQLVESGGGSVQPGGSLRLSCEVSGRTFSSYTMGWFRQAPGKEREFVVAISKGGYKYDSVSLEARFTISKDNTKNTVYLQMNSLKPEDTAVYYCAATRAYGSSRLRLADTYEYWGQGTQVTVSSPDSAPAPAPAPAPAPAPAPAPAPDGSSQLQLVESGGGSVQPGGSLRLSCEVSGRTFSSYTMGWFRQAPGKEREFVVAISKGGYKYDSVSLEARFTISKDNTKNTVYLQMNSLKPEDTAVYYCAATRAYGSSRLRLADTYEYWGQGTQVTVSS
notes: Tandem bivalent nanobody

- EC50 (human VEGFA165 [1]): 0.22 nM
B5: 2V1-30GS (VHH)
chain: QLQLVESGGGSVQPGGSLRLSCEVSGRTFSSYTMGWFRQAPGKEREFVVAISKGGYKYDSVSLEARFTISKDNTKNTVYLQMNSLKPEDTAVYYCAATRAYGSSRLRLADTYEYWGQGTQVTVSSGGGGSGGGSGGGGSGGGSGGGSGGGSGGGSQLQLVESGGGSVQPGGSLRLSCEVSGRTFSSYTMGWFRQAPGKEREFVVAISKGGYKYDSVSLEARFTISKDNTKNTVYLQMNSLKPEDTAVYYCAATRAYGSSRLRLADTYEYWGQGTQVTVSS
notes: Tandem bivalent nanobody

- EC50 (human VEGFA165 [1]): 0.22 nM
B6: 2V1-EAAAK-Rigid (VHH)
chain: QLQLVESGGGSVQPGGSLRLSCEVSGRTFSSYTMGWFRQAPGKEREFVVAISKGGYKYDSVSLEARFTISKDNTKNTVYLQMNSLKPEDTAVYYCAATRAYGSSRLRLADTYEYWGQGTQVTVSSLAEAAAKEAAAKEAAAKEAAAKEAAAKAAAQLQLVESGGGSVQPGGSLRLSCEVSGRTFSSYTMGWFRQAPGKEREFVVAISKGGYKYDSVSLEARFTISKDNTKNTVYLQMNSLKPEDTAVYYCAATRAYGSSRLRLADTYEYWGQGTQVTVSS
notes: Tandem bivalent nanobody

- EC50 (human VEGFA165 [1]): 0.29 nM
B9: 2V1-NL (VHH)
chain: QLQLVESGGGSVQPGGSLRLSCEVSGRTFSSYTMGWFRQAPGKEREFVVAISKGGYKYDSVSLEARFTISKDNTKNTVYLQMNSLKPEDTAVYYCAATRAYGSSRLRLADTYEYWGQGTQVTVSSQLQLVESGGGSVQPGGSLRLSCEVSGRTFSSYTMGWFRQAPGKEREFVVAISKGGYKYDSVSLEARFTISKDNTKNTVYLQMNSLKPEDTAVYYCAATRAYGSSRLRLADTYEYWGQGTQVTVSS
notes: Tandem bivalent nanobody; also called bivalent V1 without a linker

- EC50 (human VEGFA165 [1]): 0.18 nM
B10: 2V1-39GS (VHH)
chain: QLQLVESGGGSVQPGGSLRLSCEVSGRTFSSYTMGWFRQAPGKEREFVVAISKGGYKYDSVSLEARFTISKDNTKNTVYLQMNSLKPEDTAVYYCAATRAYGSSRLRLADTYEYWGQGTQVTVSSGGGGSGGGSGGGGSGGGGSGGGGSGGGGSGGGGSGGGGSQLQLVESGGGSVQPGGSLRLSCEVSGRTFSSYTMGWFRQAPGKEREFVVAISKGGYKYDSVSLEARFTISKDNTKNTVYLQMNSLKPEDTAVYYCAATRAYGSSRLRLADTYEYWGQGTQVTVSS
notes: Tandem bivalent nanobody

- EC50 (human VEGFA165 [1]): 0.21 nM
- IC50 (human VEGFA165 [2]): 3.53 nM
- Maximum inhibition rate (%) (human VEGFA165 [2]): 88.8%
B11: 2V15-9S (VHH)
chain: QLQLVESGGGSVQPGGSLRLSCEVSGRTFASYTMGWFRQAPGKEREFVVAISKGGYKYDSVSLEARFTISKDNTKNTVYLQMNSLKPEDTAVYYCAGTRAYGSSRLRLAETYEYWGQGTQVTVSSSSSSSSSSSQLQLVESGGGSVQPGGSLRLSCEVSGRTFASYTMGWFRQAPGKEREFVVAISKGGYKYDSVSLEARFTISKDNTKNTVYLQMNSLKPEDTAVYYCAGTRAYGSSRLRLAETYEYWGQGTQVTVSS
notes: Tandem bivalent nanobody

- EC50 (human VEGFA165 [1]): 0.28 nM
- IC50 (human VEGFA165 [2]): 2.03 nM
- Maximum inhibition rate (%) (human VEGFA165 [2]): 94.2%
B12: 2V15-20GS (VHH)
chain: QLQLVESGGGSVQPGGSLRLSCEVSGRTFASYTMGWFRQAPGKEREFVVAISKGGYKYDSVSLEARFTISKDNTKNTVYLQMNSLKPEDTAVYYCAGTRAYGSSRLRLAETYEYWGQGTQVTVSSGGGGSGGGSGGGSGGGSGGSQLQLVESGGGSVQPGGSLRLSCEVSGRTFASYTMGWFRQAPGKEREFVVAISKGGYKYDSVSLEARFTISKDNTKNTVYLQMNSLKPEDTAVYYCAGTRAYGSSRLRLAETYEYWGQGTQVTVSS
notes: Tandem bivalent nanobody
